The results in this text go back to the DeepSol protein solubility set.

This series is described as follows: soluble on expression in E. coli; label from the status in PepcDB or PDB records.
In the case of “QPLPSAALRRCPPPARVGGRWVSAEKVNEGGSGGGGSQRLTRRARSTARVPAPGTMDAPRASAAKPPTGRKMKARAPPPPGKAATLHVHSDQKPPHDGALGSQQNLVRMKEALRASTMDVTVVLPSGLEKRSVLNGSHAMMDLLVELCLQNHLNPSHHALEIRSSETQQPLSFKPNTLIGTLNVHTVFLKEKVPEEKVKPGPPKVPEKSVRLVVNYLRTQKAVVRVSPEVPLQNILPVICAKCEVSPEHVVLLRDNIAGEELELSKSLNELGIKELYAWDNRRETFRKSSLGNDETDKEKKKFLGFFKVNKRSNSKGCLTTPNSPSMHSRSLTLGPSLSLGSISGVSVKSEMKKRRAPPPPGSGPPVQDKASEKVSLGSQIDLQKKKRRAPAPPPPQPPPPSPLIPNRTEDKEENRKSTMVSLPLGSGSHCSPDGAPQVLSEAEETVSVGSCFASEDTTEDSGVMSSPSDIVSLDSQQDSMKYKDKWATDQEDCSDQDLAGTPDLGPQKSPLWEKNGSENSHLRTEKAVTASNDEEDLLIAGEFRKTLAELDEDLEEMEDSYETDTSSLTSSIHGASNHCPQDAMIPHGDTDAIPVTFIGEVSDDPVDSGLFSNRNNNAGSFDSEGVASRRDSLAPLQAEHSQPHEKAREEVPALHPASHDVGKGIRVALSNISKDGNLMETAPRVTSFASNLHTDNLNAKVKDKVYGCADGERTQATERVNSQPVNEKDSNDKNAALAPTSWHQRGQNPGKSYRLKHGLTTYKIIPPKSEMRCYDRDVSLSTGAIKIDELGNLVSPHATGIRIISLSSSVPEAESQPIGKVREFWRCNSVEKHLGRPSESSARGPPSTPVPTQTQNPESRLQADPKPISPQQKSAHHEGRNPLGEGRNQPPTMGMGHVRVPAAHTTEVTFLKPQRRTSSQYVASAIAKRIGAPKVHADVVRPHGYAEKGYAGKAPVLAAPPVTVKDDRTSSPHSETQGWKDGAQWPCVTPPNNHGEDLAVGAPPRGEVIGPHRKLSTQDRPAAIHRSSCFSLVQSSQRDRVSVGQSCGFSGKQSTSSQEASSASEPRRAPDGTDPPPPHTSDTQACSRELVNGSVRAPGHGEPSHPPGGSGTESHILLEREEKPSVFSTDGNETDSIWPPSIFGPKKKFKPVVQRPVPKDTSLHSALMEAIHSAGGKDRLRKTAEHTGEGRPAKLSYTEAEGERSALLAAIRGHSGTCSLRKVASSASEELQSFRDAALSAQGSESPLLEDLGLLSPPAIPPPPPPPSQALSAPRTASRFSTGTLSNTADARQALMDAIRSGTGAARLRKVPLLV”, the “soluble on expression in E. coli” value is given as “soluble”. In the case of “QQKRAFEYEIRFYTGNDPLDVWDRYISWTEQNYPQGGKESNMSTLLERAVEALQGEKRYYSDPRFLNLWLKLGRLCNEPLDMYSYLHNQGIGVSLAQFYISWAEEYEARENFRKADAIFQEGIQQKAEPLERLQSQHRQFQARVSRQTLLALEKEEEEEVFESS”, the “soluble on expression in E. coli” value is recorded as “soluble”. The value for “QSFWEEIAPPFISNEPNVKYIIPNMGIDSKGTIYVTVTKRIQQGANYTSEQLGMYYRPLGDNEQWWKHDPYFDDKIVADIQTDAYGRVYVCTTSSRDQEYQLYINEQNEWRCIFKTSVSTYEHGMAVFRSSTGVTYIGTRHHIFASGVNDFEFNTIYEDSTPMSCRFAEATNSGTIYLALMHETTMSTTILTYQNGEFVDISESELSNSIIASMCSNKEGD” was “not soluble”; that for “QSILQDLFLLLIKFPKEEKTVEVFDTSPKIQLSNYEQYRQDALLAKAEGEQNKINTVLSYTEKTLAPYVVESELSNLCTQISHFLSSDWKEEECREIKISSQLKSIDLMHFGWNIAQPFGKSRKEISTFLKYTFAHALEDVEVSTLQRKLTNTEGKFLIPLQEKLSTESYSSS” was “not soluble”; that for “QTNNDEELQDMSDPLAVYTQAGFGITDKGANIKIGQTYQSSQPGTMAMNIIEMKGIGGELFGIRDNDDPMYANVDDSIDSFRLRNFQVEVAKGLGRQLDVNYDVDNDKLDASYSFIQGLPK” was “not soluble”. Regarding “QVINTFDGVADYLQTYHKLPDNYITKSEAQALGWVASKGNLADVAPGKSIGGDIFSNREGKLPGKSGRTWREADINYTSGFRNSDRILYSSDWLIYKTTDAYQTFTKIRSSSMGVCPKILKKCRRDSDCLAGCVCGPNGFCGS”, the “soluble on expression in E. coli” value is on record as “soluble”. Then “QVKDFVIEPPIKNNLHIYKTFGVFGGKEYSANSMYLVTKKGVVLFDVPWEKVQYQSLMDTIKKRHNLPVVAVFATHSHDDRAGDLSFFNNKGIKTYATAKTNEFLKKDGKATSTEIIKTGKPYRIGGEEFVVDFLGEGHTADNVVVWFPKYNVLDGGCLVKSNSATDLGYIKEANVEQWPKTINKLKAKYSKATLIIPGHDEWKGGGHVEHTLELLNKK”, with “soluble”; and “QVQLQESGPGLVRPSQTLSLTCTVSGFSLTGYGVNWVRQPPGRGLEWIGMIWGDGNTDYNSALKSRVTMLKDTSKNQFSLRLSSVTAADTAVYYCARERDYRLDYWGQGSLVTVSSG”, with “soluble”. “RCIKLYRARKGNAAVKRHMRDTLSLNDAVEKVRAVDAPLSKLAQEALQSYRNYRRNEASELAQALPLNEYLVIQIRNSMAQIMRRFD”: the “soluble on expression in E. coli” value is reported as “not soluble”.

As to “RDSSDDWEIPDGQITVGQRIGSGSFGTVYKGKWHGDVAVKMLNVTAPTPQQLQAFKNEVGVLRKTRHVNILLFMGYSTKPQLAIVTQWCEGSSLYHHLHASETKFEMKKLIDIARQTARGMDYLHAKSIIHRDLKSNNIFLHEDNTVKIGDFGLATVKSRWSGSHQFEQLSGSILWMAPEVIRMQDSNPYSFQSDVYAFGIVLYELMTGQLPYSNINNRDQIIEMVGRGSLSPDLSKVRSNCPKRMKRLMAECLKKKRDERPSFPRILAEIEELARELSG”, the “soluble on expression in E. coli” value is listed as “soluble”. With “REIGENTYIVEGSMTLNDFNEHFDTELESDDVDTIAGYYLTGVGAIPTQEVKEHYEVINKDKRLEFINDKVKDGRVTKLKVIITAAPEEAGE”, the “soluble on expression in E. coli” value is recorded as “not soluble”. The value for “REQGFMFKKELGIESMEDLIEKIRYYKIINRNKGSGTRILFDKFLKENDIDKNSINGYDIEAKTHSAVGAAVSMGKAQIGLGISTISDHYDLEFIPIADENYDLLIPKEKLYDEDIIKFIETLKNEELPFKKSKDTGKIIYGC” was “not soluble”; that for “RERLLSEAKATLQNYVAIAMTAIKPLYDAAAPGDEAARANAIKLLSAVSYGKDGYLFGYDSQVVRIFRSTSPDGLGKSFVDARDANGVYINR” was “not soluble”; that for “RETFKVLLQGVPDGIDLEGLKTDILSLPHIRSVHDIHLWTLDGESHVMTIHVVYCPDDFSSPQAVFDMKESVREKCSAHGIRHATIELDPEGCSCGMESC” was “not soluble”. The value for “RETFNYMLPGAGVRGAAMARTAGRWGERVVSHNATFKLLTDLRIFFFKKLAPLIPGRVSTMRDADLLNRLVADVDAMDHVYLR” was “not soluble”; that for “RGGSFAKSWRPMTMSYANLSVDKVEHRALVLNTPYSIIRTIGKQGLEEKRFYASEKELEQVFNPIHHLATDTTARFSQLRGRNVMVIIIESFARQYVGRLNQDIPDYKGYTPCFDSISQKGYLFEQAFANGRKSIDAMPSILSSLPSLRSHFITSHYSGNEIEGLGTALGRIGYQSIFLHGAPNGSMGFDAFVKQAGYKRYFGKTEYAHDEDFDGVWGIWDEPFLLHAVDELSRMKQPFVGTLFTLSSHEPFHIPSHREGLFPNEGEPLVQCIGYTDHALGEFFRKASRQTWFENTLFVITADHASGDLRPEYRSAVGR” was “not soluble”; that for “RGRGAAAWRILRCRRLPEPSPFLTQPNLAQSQPPAPVPVTDPSVTMHPAVFLSLPDLRCSLLLLVTWVFTPVTTEITSLDTENIDEILNNADVALVNFYADWCRFSQMLHPIFEEASDVIKEEFPNENQVVFARVDCDQHSDIAQRYRISKYPTLKLFRNGMMMKREYRGQRSVKALADYIRQQKSDPIQEIRDLAEITTLDRSKRNIIGYFEQKDSDNYRVFERVANILHDDCAFLSAFGDVSKPERYSGDNIIYKPPGHSAPDMVYLGAMTNFDVTYNWIQDKCVPLVREITFENGEELTEEGLPFLILFHMKEDTESLEIFQNEVARQLISEKGTINFLHADCDKFRHPLLHIQKTPADCPVIAIDSFRHMYVFGDFKDVLIPGKLKQFVFDLHSGKLHREFHHGPDPTDTAPGEQAQDVASSPPESSFQKLAPSEYRYTLLRDRDEL” was “soluble”. Then “RHMASIEKVANCIRCLAADIVQGGKSGHPGTPMGMAPMSAVLWTEVMKYNSQDPDWVDRDRFVMSNGHGCALQYALLHMAGYNLTMDDLKGFRQDGSRTPGHPERFVTPGVEVTTGPLGQGIANAVGLAIAEAHLAATFNRPGYNIVDHYTYVYCGDGCLMEGVCQEALSLAGHLALEKLIVIYDSNYISIDGSTSLSFTEQCHQKYVAMGFHVIEVKNGDTDYEGLRKALAEAKATKGKPKMIVQTTTIGFGSSKQGTEKVHGAPLGEEDIANIKAKFGRDPQKKYDVDDDVRAVFRMHIDKCSAEQKAWEELLAKYTAAFPAEGAAFVAQMRGELPSGWEAKLPTNSSAIATRKASENCLAVLFPAIPALMGGSADLTPSNLTRPASANLVDFSSSSKEGRYIRFGVREHAMCAILNGLDAHDGIIPFGGTFLNFIGYALGAVRLAAISHHRVIYVATHDSIGVGEDGPTHQPVELVAALRAMPNLQVIRPSDQTETSGAWAVALSSIHTPTVLCLSRQNTEPQSGSSIEGVRHGAYSVVDVPDLQLVIVASGSEVSLAVDAAKALSGELRVRVVSMPCQELFDAQPDTYRQAVLPAGVPVVSVEAYVSFGWEKYSHAHVGMSGFGASAPAGVLYKKFGITVEEVVRTGRELAKRFPDGTAPLKNSSFSKM”, with “soluble”. For “RIVCQFSCGAASAVATKLALADYSATHDVQILNAYLVNEHADSLRFLADCEAWFEQPVTVLRDEKYGADIIEVFRRERFIKKQYGASCTQLLKRRLLDIWKLPGDVMVFGYTAEEADRLEDFRERNPDRPVIAPLIDRGLGKEDCKAMIQRAGIELPVMYRMGYDNANCI”, the “soluble on expression in E. coli” value is “not soluble”. The value for “RLAVGDEITAAGELLAGGKILAIKGIGGFHLAVDASNEAAVRRLRSRKGREEKPFAVMVRDLAAARALCDISPEEKAALASPQAPIVLLRARQGLSLAPSIAPGNDRLGVMLPYSPLHWLLLREGPKVLVMTSANFSEEPLVADNAEALERLAGIADAFLMHDRPIARRCDDSVVMSMAGAVRLIRRSRGYAPAPVRLAES” was “not soluble”; that for “RLLGAPVPVDENDEGLQRALQFAMAEYNRASNDKYSSRVVRVISAKRQLVSGIKYILQVEIGRTTCPKSSGDLQSCEFHDEPEMAKYTTCTFVVYSIPWLNQIKLLESKCQ” was “soluble”; that for “RQSVQTVLPESTGNNTLSLRDSVCRDLFQLFSSPHSPLPILLVSGMPEWQGHNQSDKLLQSWYCRQLRSALLFHEPRIAALQVNLKEAYCHELAISLEMMLYHDDEPLTFDLVWQKG” was “not soluble”. Then “RRENARRFDRKQYDFVDIDECAIQTKTYPGSDHDMAQDWLQKQMMILKPKYREPLLLSLVAGLNHDEIAQALRLNHNTVATRLFRARNQLIAQQGNH”, with “not soluble”; and “RRRFDEKRREMLMGKLEEINQKRIAEALESEKKSLEKVSRSDQLRIDLITNVSHDLKTPLTSMVGYIELIKKEELSDLVRDYVDVLSERAEKLKEMINSLFSLAKASSGNIELHPEKFELNRLVEQIFADMHDHVKESELQFVKQFTEENTEIISDNMYFYRICQNLIENALKYSAKHTRVFVKTYQKESSNHLCLEITNTAGYPMDFTKEEIIERFFRGDKQRSSEGNGLGLAIVSTYVKALGGEFDIKIDCDQFKACVEMPLSAITIT”, with “not soluble”; and “RSAEALFEKAVTPSDVGKLNRLVIPKHHAEKHFPLPSSNVSVKGVLLNFEDVNGKVWRFRYSYWNSSQSYVLTKGWSRFVKEKNLRAGDVVSFSRSNGQDQQLYIGWKSRSGSDLDA”, with “soluble”.
